Test results as given in IntAct's records for PubMed 21471201.

B1: NAD-dependent protein deacetylase sirtuin-1 (Homo sapiens), Q96EB6 (parent)
chain: MADEAALALQPGGSPSAAGADREAASSPAGEPLRKRPRRDGPGLERSPGEPGGAAPEREVPAAARGCPGAAAAALWREAEAEAAAAGGEQEAQATAAAGEGDNGPGLQGPSREPPLADNLYDEDDDDEGEEEEEAAAAAIGYRDNLLFGDEIITNGFHSCESDEEDRASHASSSDWTPRPRIGPYTFVQQHLMIGTDPRTILKDLLPETIPPPELDDMTLWQIVINILSEPPKRKKRKDINTIEDAVKLLQECKKIIVLTGAGVSVSCGIPDFRSRDGIYARLAVDFPDLPDPQAMFDIEYFRKDPRPFFKFAKEIYPGQFQPSLCHKFIALSDKEGKLLRNYTQNIDTLEQVAGIQRIIQCHGSFATASCLICKYKVDCEAVRGDIFNQVVPRCPRCPADEPLAIMKPEIVFFGENLPEQFHRAMKYDKDEVDLLIVIGSSLKVRPVALIPSSIPHEVPQILINREPLPHLHFDVELLGDCDVIINELCHRLGGEYAKLCCNPVKLSEITEKPPRTQKELAYLSELPPTPLHVSEDSSSPERTSPPDSSVIVTLLDQAAKSNDDLDVSESKGCMEEKPQEVQTSRNVESIAEQMENPDLKNVGSSTGEKNERTSVAGTVRKCWPNRVAKEQISRRLDGNQYLFLPPNRYIFHGAEVYSDSEDDVLSSSSCGSNSDSGTCQSPSLEEPMEDESEIEEFYNGLEDEPDVPERAGGAGFGTDGDDQEAINEAISVKQEVTDMNYPSNKS

Variants of: B1
Conditions: with rptor_human RPTOR

With F474A as the variant, how does the “effect of a mutation on the interaction” value read?
Its value is “decreasing interaction”.
